± gives the uncertainty stated by the source.
B1: Neutrophil cytosol factor 2, residues 456 to 514; numbered along this chain, P19878 (parent)
chain: LKKGSQVEALFSYEATQPEDLEFQEGDIILVLSKVNEEWLEGECKGKVGIFPKVFVEDC

Variants of: B1
Assay: abundance fitness (aPCA) (normalised: wild type 0, dead -1); higher = more abundant; growth selection in yeast, the domain comes from the species named
Details: Homo sapiens

Q: For LEKGSQVEALFSYEATQPEDLEFQEGDIILVLSKVNEEWLEGECKGKVGIFPKVFVEDC [K2E], which abundance fitness is on record?
A: -0.415 ± 0.32

Q: With LKKGSQVEALFSYEATQPEDLEFQEGDIILVLSKVNEEWLEGECKGKVGIPPKVFVEDC [F51P] as the variant, how does the abundance fitness read?
A: -0.924 ± 0.47

Q: Which abundance fitness does the source give for LKKGSQVEALFSYEATQPEDLEFQEGDIILVLSKVNEEWLEGECKGKCGIFPKVFVEDC [V48C] here?
A: -0.392 ± 0.16

Q: Which abundance fitness does the source give for LKKGSQVEALFSYEATQPEDLEFQEGDIILVLSKVNFEWLEGECKGKVGIFPKVFVEDC [E37F] here?
A: -0.697 ± 0.2

Q: For LKKGSQVEALFSYEATQPEDLEFQEGDIILVLSKVNEEWLEGECKGKVGIFPKVFVEVC [D58V], which abundance fitness is on record?
A: -0.138 ± 0.16

Q: With LKKGSQVEALFSYEATQPEDLEFQEGDIILTLSKVNEEWLEGECKGKVGIFPKVFVEDC [V31T] as the variant, how does the abundance fitness read?
A: -0.482 ± 0.19

Q: With LKKGSQVEALFSYESTQPEDLEFQEGDIILVLSKVNEEWLEGECKGKVGIFPKVFVEDC [A15S] as the variant, how does the abundance fitness read?
A: 0.051 ± 0.089

Q: With LKKGSQVEALFSYEATQIEDLEFQEGDIILVLSKVNEEWLEGECKGKVGIFPKVFVEDC [P18I] as the variant, how does the abundance fitness read?
A: -0.651 ± 0.22

Q: Which abundance fitness does the source give for LKKGSQVEALFSYEATQPEDLEFQEGDIILVLSKNNEEWLEGECKGKVGIFPKVFVEDC [V35N] here?
A: -0.517 ± 0.15

Q: With LKKGSQVEALFSYEATQKEDLEFQEGDIILVLSKVNEEWLEGECKGKVGIFPKVFVEDC [P18K] as the variant, how does the abundance fitness read?
A: -0.558 ± 0.38

Q: Which abundance fitness does the source give for LKKGSQAEALFSYEATQPEDLEFQEGDIILVLSKVNEEWLEGECKGKVGIFPKVFVEDC [V7A] here?
A: -0.662 ± 0.29

Q: With LKKGSQVEALFSYEAMQPEDLEFQEGDIILVLSKVNEEWLEGECKGKVGIFPKVFVEDC [T16M] as the variant, how does the abundance fitness read?
A: -0.164 ± 0.4

Q: With LKKGSQVEALFSYEATQPEDLEFQEGDIIPVLSKVNEEWLEGECKGKVGIFPKVFVEDC [L30P] as the variant, how does the abundance fitness read?
A: 0.04 ± 0.23

Q: Which abundance fitness does the source give for LKKGSQVEALFSYEATQPEDLEFQEGDIILVLSKVNEEWLEGECKDKVGIFPKVFVEDC [G46D] here?
A: -0.703 ± 0.19

Q: With LKKGSQVEALFSYEATQPEDLEFQEGDIILVSSKVNEEWLEGECKGKVGIFPKVFVEDC [L32S] as the variant, how does the abundance fitness read?
A: -0.069 ± 0.079

Q: For LKKGSQVEALFSYEATQPEDLEFQEVDIILVLSKVNEEWLEGECKGKVGIFPKVFVEDC [G26V], which abundance fitness is on record?
A: -0.407 ± 0.12

Q: Which abundance fitness does the source give for LKKGSQVEALFSYEATQPEDLEFQEGDIILVLSKVNEEQLEGECKGKVGIFPKVFVEDC [W39Q] here?
A: -0.864 ± 0.45

Q: Which abundance fitness does the source give for LKKGSQVEALFDYEATQPEDLEFQEGDIILVLSKVNEEWLEGECKGKVGIFPKVFVEDC [S12D] here?
A: -0.139 ± 0.13

Q: Which abundance fitness does the source give for LKKGSQVEALFSYEATQPEDLEIQEGDIILVLSKVNEEWLEGECKGKVGIFPKVFVEDC [F23I] here?
A: -0.374 ± 0.13

Q: Which abundance fitness does the source give for LKKGSQVEALFSYEATQPEDLEFQEGDIILVLSKVNEEWLEGECKGKVGCFPKVFVEDC [I50C] here?
A: -0.4 ± 0.15

Q: For LKKGSQVEFLFSYEATQPEDLEFQEGDIILVLSKVNEEWLEGECKGKVGIFPKVFVEDC [A9F], which abundance fitness is on record?
A: -0.2 ± 0.27

Q: With LKVGSQVEALFSYEATQPEDLEFQEGDIILVLSKVNEEWLEGECKGKVGIFPKVFVEDC [K3V] as the variant, how does the abundance fitness read?
A: -0.033 ± 0.14

Q: With LKKGSQVEALFSYEATQPEDLEFQEGDIILVLSKVNEEWLEGECKGKVGIFPKVFVEDY [C59Y] as the variant, how does the abundance fitness read?
A: -0.204 ± 0.14

Q: With LKKGSQVEALFSYEATQPEDLEFQEGDIILVLSKVSEEWLEGECKGKVGIFPKVFVEDC [N36S] as the variant, how does the abundance fitness read?
A: -0.586 ± 0.11

Q: Which abundance fitness does the source give for LKKGSQVEALFSYEATQPEDLEFQEGDIILVLSKVNEEWLEGECKGKVKIFPKVFVEDC [G49K] here?
A: 0.002 ± 0.19

Q: With LKKGSQVEALFSYDATQPEDLEFQEGDIILVLSKVNEEWLEGECKGKVGIFPKVFVEDC [E14D] as the variant, how does the abundance fitness read?
A: -0.073 ± 0.12

Q: Which abundance fitness does the source give for LKKGSQVEALFSYEITQPEDLEFQEGDIILVLSKVNEEWLEGECKGKVGIFPKVFVEDC [A15I] here?
A: -0.357 ± 0.17

Q: With YKKGSQVEALFSYEATQPEDLEFQEGDIILVLSKVNEEWLEGECKGKVGIFPKVFVEDC [L1Y] as the variant, how does the abundance fitness read?
A: 0.581 ± 0.32

Q: With LKKGSQVEALVSYEATQPEDLEFQEGDIILVLSKVNEEWLEGECKGKVGIFPKVFVEDC [F11V] as the variant, how does the abundance fitness read?
A: 0.035 ± 0.14

Q: With LKKGSQVEALFSYEATQPEDLEFQEGDIILVLSKVNEEWLHGECKGKVGIFPKVFVEDC [E41H] as the variant, how does the abundance fitness read?
A: -0.682 ± 0.27

Q: For LKKGSQVEALFSYEATQPEDLEFQEGDIILVLSKVNEEWLEGECKGKVGIFPKYFVEDC [V54Y], which abundance fitness is on record?
A: -0.03 ± 0.12

Q: For LKKGSQVEALFSYEATQPEDLEFQEGDIIFVLSKVNEEWLEGECKGKVGIFPKVFVEDC [L30F], which abundance fitness is on record?
A: -0.147 ± 0.1

Q: Which abundance fitness does the source give for LKKGSQVEALFSYEATQPEDLEFQEGDILLVLSKVNEEWLEGECKGKVGIFPKVFVEDC [I29L] here?
A: -0.454 ± 0.12

Q: With LKKGSQVEALFSYEATQPEDLEFQEGDIILVLSKVNEEWLEGECKGKVGIFEKVFVEDC [P52E] as the variant, how does the abundance fitness read?
A: -0.642 ± 0.37

Q: Which abundance fitness does the source give for LKKGSQVEALFSYEATQPEDLEFQEGDIILVLSKVNEEWLEGECKGKVHIFPKVFVEDC [G49H] here?
A: -0.893 ± 0.28

Q: For LKKGSQVRALFSYEATQPEDLEFQEGDIILVLSKVNEEWLEGECKGKVGIFPKVFVEDC [E8R], which abundance fitness is on record?
A: 1.16 ± 0.095

Q: For LKKGSQVEALFSYEATQPEDLEFQEGDCILVLSKVNEEWLEGECKGKVGIFPKVFVEDC [I28C], which abundance fitness is on record?
A: -0.546 ± 0.11

Q: Which abundance fitness does the source give for LKKGSQVEALKSYEATQPEDLEFQEGDIILVLSKVNEEWLEGECKGKVGIFPKVFVEDC [F11K] here?
A: 0.153 ± 0.2

Q: For LKKGSQVEALFSYEATSPEDLEFQEGDIILVLSKVNEEWLEGECKGKVGIFPKVFVEDC [Q17S], which abundance fitness is on record?
A: 0.615 ± 0.07

Q: Which abundance fitness does the source give for LSKGSQVEALFSYEATQPEDLEFQEGDIILVLSKVNEEWLEGECKGKVGIFPKVFVEDC [K2S] here?
A: -0.347 ± 0.22

Q: Which abundance fitness does the source give for LKKGSQVEALFSYEATQPEDLEFQEGDIILVLSKVNEEWLEGECKGKVGIFPKVWVEDC [F55W] here?
A: -0.529 ± 0.35

Q: Which abundance fitness does the source give for LKKGSQVEALFSYEATQPEDLEFQEGDIILVLSKVNEEWLEGECKGDVGIFPKVFVEDC [K47D] here?
A: -0.858 ± 0.21

Q: For LKKGSQVEALFSYEATQPEDLEFQEGDICLVLSKVNEEWLEGECKGKVGIFPKVFVEDC [I29C], which abundance fitness is on record?
A: -0.497 ± 0.12

Q: Which abundance fitness does the source give for LKKGSQVEALFSYEATQPEDLEFQEGDIILVLSKVNEEWLEGEPKGKVGIFPKVFVEDC [C44P] here?
A: -0.583 ± 0.2

Q: Which abundance fitness does the source give for LKKGSQVEALFSYEATQPEDLEFQEGDIILVLRKVNEEWLEGECKGKVGIFPKVFVEDC [S33R] here?
A: 0.59 ± 0.077
